{"source": "IntAct's records for PubMed 31515488", "parents": {"B1": {"name": "Caspase-9 (Homo sapiens), P55211 (parent)", "chain": "MDEADRRLLRRCRLRLVEELQVDQLWDALLSRELFRPHMIEDIQRAGSGSRRDQARQLIIDLETRGSQALPLFISCLEDTGQDMLASFLRTNRQAAKLSKPTLENLTPVVLRPEIRKPEVLRPETPRPVDIGSGGFGDVGALESLRGNADLAYILSMEPCGHCLIINNVNFCRESGLRTRTGSNIDCEKLRRRFSSLHFMVEVKGDLTAKKMVLALLELAQQDHGALDCCVVVILSHGCQASHLQFPGAVYGTDGCPVSVEKIVNIFNGTSCPSLGGKPKLFFIQACGGEQKDHGFEVASTSPEDESPGSNPEPDATPFQEGLRTFDQLDAISSLPTPSDIFVSYSTFPGFVSWRDPKSGSWYVETLDDIFEQWAHSEDLQSLLLRVANAVSVKGIYKQMPGCFNFLRKKLFFKTS"}, "B2": {"name": "Zinc finger and BTB domain-containing protein 49 (Homo sapiens), Q6ZSB9 (parent)", "chain": "MDPVATHSCHLLQQLHEQRIQGLLCDCMLVVKGVCFKAHKNVLAAFSQYFRSLFQNSSSQKNDVFHLDVKNVSGIGQILDFMYTSHLDLNQDNIQVMLDTAQCLQVQNVLSLCHTFLKSATVVQPPGMPCNSTLSLQSTLTPDATCVISENYPPHLLQECSADAQQNKTLDESHPHASPSVNRHHSAGEISKQAPDTSDGSCTELPFKQPNYYYKLRNFYSKQYHKHAAGPSQERVVEQPFAFSTSTDLTTVESQPCAVSHSECILESPEHLPSNFLAQPVNDSAPHPESDATCQQPVKQMRLKKAIHLKKLNFLKSQKYAEQVSEPKSDDGLTKRLESASKNTLEKASSQSAEEKESEEVVSCENFNCISETERPEDPAALEDQSQTLQSQRQYACELCGKPFKHPSNLELHKRSHTGEKPFECNICGKHFSQAGNLQTHLRRHSGEKPYICEICGKRFAASGDVQRHIIIHSGEKPHLCDICGRGFSNFSNLKEHKKTHTADKVFTCDECGKSFNMQRKLVKHRIRHTGERPYSCSACGKCFGGSGDLRRHVRTHTGEKPYTCEICNKCFTRSAVLRRHKKMHCKAGDESPDVLEELSQAIETSDLEKSQSSDSFSQDTSVTLMPVSVKLPVHPVENSVAEFDSHSGGSYCKLRSMIQPHGVSDQEKLSLDPGKLAKPQMQQTQPQAYAYSDVDTPAGGEPLQADGMAMIRSSLAALDNHGGDPLGSRASSTTYRNSEGQFFSSMTLWGLAMKTLQNENELDQ"}}}
{"variants_of": "B1", "settings": "with birc2_human BIRC2, Q13490"}
{"variant": "T366N", "effect of a mutation on the interaction": "disrupting interaction strength"}
{"variant": "P336S", "effect of a mutation on the interaction": "with no effect"}
{"variant": "H237P", "effect of a mutation on the interaction": "disrupting interaction strength"}
{"variant": "R173H", "effect of a mutation on the interaction": "with no effect"}
{"variant": "Q221R", "effect of a mutation on the interaction": "with no effect"}
{"variant": "R178C", "effect of a mutation on the interaction": "disrupting interaction strength"}
{"variants_of": "B1", "settings": "with xiap_human XIAP"}
{"variant": "P336S", "effect of a mutation on the interaction": "with no effect"}
{"variant": "Q221R", "effect of a mutation on the interaction": "with no effect"}
{"variants_of": "B2", "settings": "with gopc_human GOPC"}
{"variant": "G701D", "effect of a mutation on the interaction": "with no effect"}
{"variant": "C294R", "effect of a mutation on the interaction": "with no effect"}
{"variants_of": "B2", "settings": "with cep70_human CEP70, Q8NHQ1"}
{"variant": "G701D", "effect of a mutation on the interaction": "with no effect"}
{"variant": "C294R", "effect of a mutation on the interaction": "with no effect"}
